Measurements: patent US7167802B2, “Methods for identifying agents that interact with MAP kinase activated protein kinase 2” (Wyeth, priority 2002, dated 2007)
Like-named read-outs stand apart in the source and are kept apart here.

How the values were obtained:
MK2 = molecular target: T1, MK2 (Homo sapiens, UniProt P49137); experiment: MK2 kinase kinetics, continuous pyruvate kinase/lactate dehydrogenase coupled assay at 340 nm; assay type: biochemical; settings: for Km: 25° C.
T1 construct: made in house; host or cells: E. coli BL21 (DE3)
T1 sequence (P49137 with tags, fused parts or gaps): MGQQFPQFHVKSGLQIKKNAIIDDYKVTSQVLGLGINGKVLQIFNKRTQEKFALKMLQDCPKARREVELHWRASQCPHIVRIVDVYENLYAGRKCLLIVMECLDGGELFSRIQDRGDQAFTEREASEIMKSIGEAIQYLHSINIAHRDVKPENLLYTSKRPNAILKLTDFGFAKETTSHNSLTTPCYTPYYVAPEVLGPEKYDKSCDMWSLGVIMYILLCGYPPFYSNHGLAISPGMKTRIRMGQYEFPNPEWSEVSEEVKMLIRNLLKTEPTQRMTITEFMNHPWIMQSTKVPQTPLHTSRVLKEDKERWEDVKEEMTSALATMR
Protocol: Activation of MK2 Constructs. The MK2 constructs 41–400 and 41–364 were activated by the phosphorylation of the constructs by p38 MAP kinase. The activation was done in 20 mM HEPES (pH 7.5), 10 mM MgCl2, 2 mM DTT, 0.50 mM ATP, 0.2 mg/ml MK2 and 0.125 μg activated p38. The reaction was incubated at 25° C. for 1–2 hour then placed on ice to be used for kinetic analysis.
Kinase Kinetics. The rate of MK2 kinase was characterized in 20 mM HEPES (pH 7.5), 10 mM MgCl2, 2 mM DTT and 100 mM NaCl. The kinetics was followed by linking the turnover of ATP is to the turnover of NADH to NAD. This was followed spectrophotometrically at 340 nm. The continuos assay contained 20 units pyruvate kinase, 30 units lactate dehydrogenase, 0.25 mM NADH, 2 mM PEP and 1.6 to 8.0 μg/mL MK2. For determining the apparent Km for ATP, the ATP concentration was varied from 0.005 to 0.25 mM while the peptide was held constant at 0.2 mM for activated MK-2 or 1.0 mM for the constitutively active form of MK-2 (41–364). For determining the apparent Km for LSP-1, the LSP-1 concentration was varied from 0.01 to 0.5 mM while ATP was held constant at 2 mM. The kinetic analysis was carried out in a 96-well plate at 25° C., on a Molecular Devices spectrophotometer.
Substrate Kinetics. Peptide LSP, based on the protein substrate of MK-2 lymphocyte/leukocyte specific protein, was used for the investigation of the kinetic mechanism for the enzyme MK-2. Data was fit to equation 1 for normal Michaelis-Menten kinetics. v=Vmax[S]/Km+[S] (1) where [S] is the substrate, Vmax is the maximum enzyme velocity, Km is the Michaelis constant.

[1] = system: MAP kinase activated protein kinase 2 (MK2); settings: cited from earlier work
[2] = system: LPS-induced cytokine synthesis in human monocytes; settings: cited from earlier work
[3] = p38 + (construct activated by p38 phosphorylation)
[4] = p38 + (construct activated by p38 phosphorylation), ATP held at 2 mM, read-out: Apparent Km (LSP-1)
[5] = p38 activated / phosphorylated by p38

| Compound | Vmax (MK2; not phosphorylated) | Vmax (MK2; [3]) | Km (MK2; [4]) | Vmax (MK2; [5]) | Vmax (MK2; p38 − (not phosphorylated)) | Km (MK2; p38 − (not phosphorylated), ATP held at 2 mM, read-out: Apparent Km (LSP-1)) | Km (MK2; p38 − (not phosphorylated), LSP-1 peptide held at 1.0 mM, listed as MK2 41-364, read-out: Apparent Km (ATP)) | Km (MK2; p38 − (not phosphorylated), LSP-1 peptide held at 1.0 mM, read-out: Apparent Km (ATP)) | Km for LSP-1 peptide substrate, fold higher compared to p38 phosphorylated MK2 41-400 (MK2; unphosphorylated MK2 41-364) | Vmax, fold lower compared to p38 phosphorylated MK2 41-400 (MK2; unphosphorylated MK2 41-364) | binding of the peptide substrate LSP-1, fold weaker than to p38 activated MK2 41-400 (MK2; unphosphorylated MK2 41-364 vs p38 activated MK2 41-400) | Km (MK2; p38 + (construct activated by p38 phosphorylation), LSP-1 peptide held at 0.2 mM, listed as MK2 41-400, read-out: Apparent Km (ATP)) | Km (MK2; p38 + (construct activated by p38 phosphorylation), LSP-1 peptide held at 0.2 mM, read-out: Apparent Km (ATP)) | activation of MK2 [1] | LPS-induced cytokine synthesis [2] |
| --- | --- | --- | --- | --- | --- | --- | --- | --- | --- | --- | --- | --- | --- | --- | --- |
| 41-364: constitutively active MK2 polypeptide, residues 41–364, in which a portion of the C-terminal autoinhibitory domain was removed [Construct 41-364] | 0.076 µmol/min/mg | 11 + 14 μmole/min/mg | 20 µM | 11 µmol/min/mg | 0.076 + 0.004 μmole/min/mg | 584 µM | 7 µM | 15 µM | 45 fold | 100 fold | more than 40 fold | – | – | – | – |
| 41-400: MK2 construct, amino acid residues 41–400, lacking the first 40 residues of the proline rich domain [Construct 41-400] | – | 8.9 + 0.1 μmole/min/mg | 13 µM | 8.9 µmol/min/mg | no activity | – | – | – | – | – | – | 15 µM | 7 µM | – | – |
| C[S+]([O-])c1ccc(-c2nc(-c3ccncc3)c(-c3ccc(F)cc3)[nH]2)cc1 (stereo not shown) [SB203580] | – | – | – | – | – | – | – | – | – | – | – | – | – | prevents the activation | inhibits LPS-induced cytokine synthesis |
